This is an account of results in PMC4358337, “How lamina-associated polypeptide 1 (LAP1) activates Torsin” (eLife, 2014).

Broadly, the stoichiometry N is a count of units in the complex or per binding partner.

What all share (details): both partners purified
Test [1] concerns the target T1, luminal domain of human LAP1 (aa356-583) (human, UniProt Q5JTV8).
T1 construct: luminal domain of human lamina-associated polypeptide 1 (LAP1), aa356-583; Tag removed with human rhinovirus 3C protease; disulfide bond C424-C582 seen in the structure; also called LAP1(356-583); Lamina-associated polypeptide 1; not shown: 6xHis-7xArg, N-terminal, cleaved
The test is described as follows: crystal structure; LAP1-VHH-BS1 complex formed with twofold molar excess of VHH-BS1, SEC purified; crystals in 20% PEG 3350, 100 mM Bis-Tris pH 5.5, 200 mM ammonium sulfate, 18°C; 1.6 Å.

Test [2] has as its target T2, luminal domain of human LAP1 (aa356-583), untagged, co-expressed with TorsinA (human, UniProt Q5JTV8).
T2 construct: luminal domain of human lamina-associated polypeptide 1 (LAP1), aa356-583, untagged; From a second, kanamycin resistant modified pETDuet-1 vector; also called LAP1(356-583)
The test is described as follows: in vitro precipitation assay (competition); 100 pmol preformed TorsinA(E171Q):LAP1 complex with 200 pmol VHH, 4°C, 10 mM HEPES/NaOH pH 8.0, 150 mM NaCl, 10 mM MgCl2, 0.25 mM ATP; soluble and insoluble protein separated by centrifugation, SDS-PAGE.

For test [3], the target named is T3, human TorsinA(E171Q) (aa51-322) (human, UniProt O14656 51-322, E171Q).
T3 construct: human TorsinA, aa51-322 as printed; Captured by its tag on nickel resin; the nickel eluate was used directly for electron microscopy; Whether the tag was removed before the analytical gel filtration and the precipitation assay is not clearly told; not shown: 6xHis-7xArg, N-terminal, kept
T3 sequence (looked up): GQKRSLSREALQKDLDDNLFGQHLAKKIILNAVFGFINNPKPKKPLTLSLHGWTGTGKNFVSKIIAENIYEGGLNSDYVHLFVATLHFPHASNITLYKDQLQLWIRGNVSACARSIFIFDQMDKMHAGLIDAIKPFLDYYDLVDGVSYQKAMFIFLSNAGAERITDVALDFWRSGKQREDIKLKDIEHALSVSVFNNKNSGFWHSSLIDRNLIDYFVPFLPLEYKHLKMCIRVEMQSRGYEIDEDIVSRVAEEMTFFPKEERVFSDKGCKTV
Kind of test: SEC; analytical gel filtration of the co-purified complexes, Superdex 200 10/300, 10 mM HEPES/NaOH pH 8.0, 150 mM NaCl, 10 mM MgCl2, 0.5 mM ATP; peak fractions by SDS-PAGE.

T2 sequence (Q5JTV8 356-583): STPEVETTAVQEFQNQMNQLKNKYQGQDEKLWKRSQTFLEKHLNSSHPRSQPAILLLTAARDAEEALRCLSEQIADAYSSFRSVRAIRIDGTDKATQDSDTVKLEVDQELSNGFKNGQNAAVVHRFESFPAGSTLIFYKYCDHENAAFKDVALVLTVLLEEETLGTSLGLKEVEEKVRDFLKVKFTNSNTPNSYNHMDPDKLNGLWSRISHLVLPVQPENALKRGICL
T1 sequence (Q5JTV8 356-583): as above

B1: VHH-BS1 (VHH)
VHH: QVQLVESGGGLVQAGGSLRLSCAASGRTLSSYAVGWFRQAPGLEREFVATISRSGGSTHYADSVKGRFTISRDNAKNTVYLQMNSLKPEDTAVYYCAATFTPDGSWYYTRGSSYDYWGQGTQVTVSS
notes: alpaca VHH selected by phage display against LAP1; Raised by immunising an alpaca with recombinant LAP1; expressed from pET-28b(+); also called camelid single domain (VHH) antibody fragment against LAP1
Consider B1, for which the binding result in test [1] and in test [2] was “binds” each time.

B2: luminal domain of human LULL1 (aa233-470), untagged, co-expressed with TorsinA (domain or fragment)
chain: not shown
notes: luminal domain of human LULL1, aa233-470, untagged; The results once print LULL1(322-570); the methods print aa233-470 throughout; also called LULL1(233-470); Luminal domain-Like LAP1
For the molecule B2, the “stoichiometry N” value in test [3] was determined as 1.

B3: luminal domain of human LAP1 (aa356-583), untagged, co-expressed with TorsinA (domain or fragment)
chain: not shown
notes: luminal domain of human lamina-associated polypeptide 1 (LAP1), aa356-583, untagged; From a second, kanamycin resistant modified pETDuet-1 vector; also called LAP1(356-583)
On to B3, for which the “stoichiometry N” value in test [3] was found to be 1.
